Assay results from US20180250364A1, “Methods of Using Interleukin-10 for Treating Diseases and Disorders” (published 2018).

T1: mIL-10 receptors (R1 and R2) (mouse, UniProt Q61727)
T1 sequence 1: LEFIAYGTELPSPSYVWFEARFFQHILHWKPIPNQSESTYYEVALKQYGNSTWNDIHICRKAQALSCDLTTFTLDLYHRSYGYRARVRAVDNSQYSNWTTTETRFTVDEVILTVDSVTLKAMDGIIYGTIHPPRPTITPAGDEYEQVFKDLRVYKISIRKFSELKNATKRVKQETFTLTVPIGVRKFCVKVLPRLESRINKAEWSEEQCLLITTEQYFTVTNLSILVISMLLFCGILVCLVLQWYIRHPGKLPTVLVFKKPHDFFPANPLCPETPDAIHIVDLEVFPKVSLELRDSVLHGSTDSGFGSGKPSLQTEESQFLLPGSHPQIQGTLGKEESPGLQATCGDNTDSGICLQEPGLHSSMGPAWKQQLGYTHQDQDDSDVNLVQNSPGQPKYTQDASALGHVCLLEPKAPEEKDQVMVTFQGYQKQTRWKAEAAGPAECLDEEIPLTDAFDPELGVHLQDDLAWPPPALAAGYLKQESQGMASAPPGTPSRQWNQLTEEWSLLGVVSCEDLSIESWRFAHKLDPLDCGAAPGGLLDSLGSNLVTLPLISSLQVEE
T1 sequence 2: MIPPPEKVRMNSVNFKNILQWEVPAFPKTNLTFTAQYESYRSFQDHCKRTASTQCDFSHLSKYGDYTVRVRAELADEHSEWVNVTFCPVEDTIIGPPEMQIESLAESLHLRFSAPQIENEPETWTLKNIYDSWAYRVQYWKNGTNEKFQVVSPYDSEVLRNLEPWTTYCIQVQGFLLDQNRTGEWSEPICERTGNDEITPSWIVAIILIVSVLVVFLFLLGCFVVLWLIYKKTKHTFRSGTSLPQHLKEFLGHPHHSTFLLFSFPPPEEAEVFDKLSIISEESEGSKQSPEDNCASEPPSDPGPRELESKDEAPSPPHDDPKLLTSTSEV


Key:
[1] = biological target: T1, mIL-10 receptors (R1 and R2); experiment: cell-based or functional assay
[2] = biological target: T1, mIL-10 receptors (R1 and R2); experiment: cell-based or functional assay; remark: listed apart in the source

Row | Binder | EC50 (ng/mL) in MC/9 Assay [1] | MC/9 proliferation (Alamar Blue), specific activity [2]
1 | Murine IL-10 (ligand) SRGQYSREDNNCTHFPVGQSHMLLELRTAFSQVKTFFQTKDQLDNILLTDSLMQDFKGYLGCQALSEMIQFYLVEVMPQAEKHGPEIKEHLNSLGEKLKTLRMRLRRCHRFLPCENKSKAVEQVKSDFNKLQDQGVYKAMNEFDIFINCIEAYMMIKMKS | 0.571 ng/mL | –
2 | PEG-mIL-10 (ligand, pegylated; prepared with the SC-PEG-12K linker; attachment residue not stated) SRGQYSREDNNCTHFPVGQSHMLLELRTAFSQVKTFFQTKDQLDNILLTDSLMQDFKGYLGCQALSEMIQFYLVEVMPQAEKHGPEIKEHLNSLGEKLKTLRMRLRRCHRFLPCENKSKAVEQVKSDFNKLQDQGVYKAMNEFDIFINCIEAYMMIKMKS | 4.04 ng/mL | ~7 fold
